B1: BCT1 CmpCD fusion (GN128) (Synechococcus elongatus PCC 7942 = FACHB-805) (protein)
chain 1: CGNPPSSSGGGTSSTTQPTAAGASDLEVKTIKLGYIPIFEAAPLIIGREKGFFAKYGLDVEVSKQASWAAARDNVILGSAGGGIDGGQWQMPMPALLTEGAISNGQKVPMYVLACLSTQGNGIAVSNQLKAQNLGLKLAPNRDFILNYPQTSGRKFKASYTFPNANQDFWIRYWFAAGGIDPDKDIELLTVPSAETLQNMRNGTIDCFSTGDPWPSRIAKDDIGYQAALTGQMWPYHPEEFLALRADWVDKHPKATLALLMGLMEAQQWCDQKANRAEMAKILSGRNFFNVPVSILQPILEGQIKVGADGKDLNNFDAGPLFWKSPRGSVSYPYKGLTLWFLVESIRWGFNKQVLPDIAAAQKLNDRVTREDLWQEAAKKLGVPAADIPTGSTRGTETFFDGITYNPDSPQAYLQSLKIKRA
chain 2: MVTARETRRNGSRPSGLKKWRQKLDGILLPLAGILGFLIIWQIFSSSGATRLPGPLSLFTEERTRELLLYPFLDRGGLDKGLFWQTIASLTRVAQGFSIAAIIGISVGILVGLNRQLNAMLDPLFQFLRMIAPLAWVPIALVAFQQNQPAAIFVIFITAVWPILINTAEGVRQIPQDYNNVARVLRMSKSKYLMKVVLPAALPYIFTGLRIAIGLSWLAIIAAEIVMSGIVGIGFFIWDAYQQNYVSDIILAVIYIGAVGLLLDRFVAWLQRWILRNM
B2: BCT1 CmpCD fusion with tags (GM319) (Synechococcus elongatus PCC 7942 = FACHB-805) (protein)
chain 1: CGNPPSSSGGGTSSTTQPTAAGASDLEVKTIKLGYIPIFEAAPLIIGREKGFFAKYGLDVEVSKQASWAAARDNVILGSAGGGIDGGQWQMPMPALLTEGAISNGQKVPMYVLACLSTQGNGIAVSNQLKAQNLGLKLAPNRDFILNYPQTSGRKFKASYTFPNANQDFWIRYWFAAGGIDPDKDIELLTVPSAETLQNMRNGTIDCFSTGDPWPSRIAKDDIGYQAALTGQMWPYHPEEFLALRADWVDKHPKATLALLMGLMEAQQWCDQKANRAEMAKILSGRNFFNVPVSILQPILEGQIKVGADGKDLNNFDAGPLFWKSPRGSVSYPYKGLTLWFLVESIRWGFNKQVLPDIAAAQKLNDRVTREDLWQEAAKKLGVPAADIPTGSTRGTETFFDGITYNPDSPQAYLQSLKIKRA
chain 2: MVTARETRRNGSRPSGLKKWRQKLDGILLPLAGILGFLIIWQIFSSSGATRLPGPLSLFTEERTRELLLYPFLDRGGLDKGLFWQTIASLTRVAQGFSIAAIIGISVGILVGLNRQLNAMLDPLFQFLRMIAPLAWVPIALVAFQQNQPAAIFVIFITAVWPILINTAEGVRQIPQDYNNVARVLRMSKSKYLMKVVLPAALPYIFTGLRIAIGLSWLAIIAAEIVMSGIVGIGFFIWDAYQQNYVSDIILAVIYIGAVGLLLDRFVAWLQRWILRNM

Substrate: O=C(O)O
Assay: cells, lysate or membranes
Conditions: pH 7.5, 20 mM bis-tris propane-H2SO4, 0.5 mM glucose, 1 µM CaCl2, induced with 100 µM IPTG, labelled compound

Protein	Km [µM]
B1	120 ± 20
B2	170 ± 30

From paper PMC11349869
